The values that follow come from article doi:10.1101/2021.12.21.473719.

The target of this assay is POPDC1 tagged with Venus (YFP acceptor for FLIM-FRET with TREK-1) (mouse) (UniProt Q9ES83). Put plainly: FRET or BRET. In general terms: In BRET a luciferase serves as donor, and the signal depends on an acceptor being close.
Sequence of POPDC1 tagged with Venus (YFP acceptor for FLIM-FRET with TREK-1) (mouse) (Q9ES83 whole entry): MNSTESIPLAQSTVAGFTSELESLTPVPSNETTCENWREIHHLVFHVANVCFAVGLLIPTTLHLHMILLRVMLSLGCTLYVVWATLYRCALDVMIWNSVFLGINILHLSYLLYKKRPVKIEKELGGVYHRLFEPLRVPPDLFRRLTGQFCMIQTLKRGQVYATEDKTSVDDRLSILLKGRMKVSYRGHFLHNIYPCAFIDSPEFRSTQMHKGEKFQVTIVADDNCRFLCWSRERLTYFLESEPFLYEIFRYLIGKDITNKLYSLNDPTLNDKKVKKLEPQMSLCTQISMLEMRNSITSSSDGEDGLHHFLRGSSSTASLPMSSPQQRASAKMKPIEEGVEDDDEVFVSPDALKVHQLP

Sequence of Cerulean-TREK-1 (natural protein) (O95069 whole entry): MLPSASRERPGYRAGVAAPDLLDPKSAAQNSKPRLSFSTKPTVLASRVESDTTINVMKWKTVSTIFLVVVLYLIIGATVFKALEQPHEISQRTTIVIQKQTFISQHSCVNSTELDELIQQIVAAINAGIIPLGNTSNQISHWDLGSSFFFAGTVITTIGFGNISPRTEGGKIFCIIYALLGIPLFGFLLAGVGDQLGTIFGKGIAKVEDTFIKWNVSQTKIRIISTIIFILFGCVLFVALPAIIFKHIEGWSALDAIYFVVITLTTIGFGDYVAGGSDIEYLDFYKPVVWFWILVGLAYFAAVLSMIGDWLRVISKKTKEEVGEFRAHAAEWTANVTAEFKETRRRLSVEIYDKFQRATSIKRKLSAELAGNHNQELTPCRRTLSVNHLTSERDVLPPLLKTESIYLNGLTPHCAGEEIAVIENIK

The substance Cerulean-TREK-1 (natural protein) came in with an FRET efficiency of 18%.
